The source of these data is article PMC3884668.

The data set has as its target T1, DIS3L2 (rDIS3L2, wild type) (Homo sapiens, UniProt Q8IYB7 1-885).
T1 sequence: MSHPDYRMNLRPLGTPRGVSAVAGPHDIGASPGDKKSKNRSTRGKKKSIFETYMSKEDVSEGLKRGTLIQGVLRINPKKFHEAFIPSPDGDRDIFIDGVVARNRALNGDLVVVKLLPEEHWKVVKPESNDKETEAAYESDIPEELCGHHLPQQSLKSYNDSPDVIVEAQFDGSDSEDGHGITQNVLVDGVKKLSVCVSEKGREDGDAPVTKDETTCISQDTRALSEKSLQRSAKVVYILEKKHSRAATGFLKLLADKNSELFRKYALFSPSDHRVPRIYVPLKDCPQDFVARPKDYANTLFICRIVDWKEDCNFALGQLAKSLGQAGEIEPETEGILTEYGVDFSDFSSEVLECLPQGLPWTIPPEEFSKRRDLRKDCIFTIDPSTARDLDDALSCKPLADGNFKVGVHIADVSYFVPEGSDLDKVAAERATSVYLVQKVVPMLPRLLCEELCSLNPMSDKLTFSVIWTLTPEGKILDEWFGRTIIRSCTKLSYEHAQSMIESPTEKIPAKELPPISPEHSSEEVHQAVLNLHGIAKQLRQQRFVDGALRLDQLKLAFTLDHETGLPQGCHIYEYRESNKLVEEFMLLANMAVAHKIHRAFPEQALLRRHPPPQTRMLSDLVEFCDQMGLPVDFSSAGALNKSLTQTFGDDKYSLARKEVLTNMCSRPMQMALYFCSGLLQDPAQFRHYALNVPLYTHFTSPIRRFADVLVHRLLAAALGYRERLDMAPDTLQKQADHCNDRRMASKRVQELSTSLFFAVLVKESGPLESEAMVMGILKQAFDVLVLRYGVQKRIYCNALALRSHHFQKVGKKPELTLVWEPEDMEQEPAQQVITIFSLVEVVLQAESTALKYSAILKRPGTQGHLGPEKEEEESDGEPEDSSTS
The data set is described as follows: EMSA.

As for UUUUUUUUUUUUUUUUUUUUUUUUUUUUUU (ssRNA) [U30 RNA], the binding result was “binds”.
